Our source for the Kd, koff and kon values is patent US20260055184A1 (Hoffmann-La Roche, published 2026).

Broadly, the Kd is the equilibrium constant for the complex coming apart. The low end stands for higher affinity, the high end for lower affinity. For orientation: koff means the rate constant with which the complex falls apart. Usually kon stands for the second-order rate constant of association.

Assay [1] addresses T1, CD3 binder CH2527 (VL_7-46(13)/VH_3-23(12)), as analyte MAK<CEA/CD3>rH.
T1 construct: the rest of the analyte MAK<CEA/CD3>rH (a CEA/CD3 molecule by its name) is not described
As to the kind of experiment: SPR (Biacore), 25°C, analyte MAK<CEA/CD3>rH. A general note: SPR reads the build-up and loss of mass on a sensor chip optically.

Assay [2] concerns the target T1, CD3 binder CH2527 …. Kind of assay: SPR (Biacore), 37°C, analyte MAK<CEA/CD3>rH.
Assay [3] concerns the target T2, HER1 extracellular domain (human, UniProt P00533 25-645).
T2 construct: extracellular domain
Kind of assay: SPR (Biacore T100), HER1 extracellular domain amine-coupled on a CM5 chip, antibody as analyte, 37 °C, 1:1 Langmuir model. As to the method:
(§1) HER1 was immobilized on the surface of a CM5 biosensorchip using standard amine-coupling chemistry. The HER1 extracellular domain was injected in sodium acetate, pH 5.0 at 1 μg/ml. Reference control flow cells were treated in the same way but with vehicle buffer only. […] The association phase was 3 minutes and the dissociation time was 10 minutes. […] Kinetic rate constants and equilibrium dissociation constants were calculated by using the 1:1 Langmuir binding model within the Biaevaluation software.

Assay [4] deals with T2, HER1 extracellular domain. As to the kind of experiment: SPR Biacore T100; HER1 extracellular domain amine-coupled on CM5, antibody injected at 3.125-50 nM, 1:1 Langmuir model. As to the method:
as §1

B1: anti-idiotypic CH2527 binder 4.15.64 (scFv)
scFv: QIQLVQSGPELKKPGETVRISCKASGYTFTDYSIHWVKQAPGKCLKWMGWINTETGEPAYADDFKGRFAFSLETSASTAYLQINNLKNEDTATFFCAHPYDYDVLDYWGQGTSVTVSSGGGGSGGGGSGGGGSGGGGSDTVLTQSPASLGVSLGQRATISCRASKSVSTSNYSYIHWYQQKPGQPPKLLIKYVSYLESGVPARFSGSGSGTDFTLNIHPVEEEDAATYYCQHSREFPWTFGCGTKLEIK
notes: From mouse hybridomas (immunisation with CH2527 Fab)
In assay [1], B1 came in with a dissociation constant (Kd) of 0.096 µM, an off-rate constant (koff) of 0.0025 s⁻¹ and a kon of 26100 M⁻¹ s⁻¹. In addition, in assay [2], binding was characterised by a dissociation constant (Kd) of 0.094 µM, the off-rate (koff) is 0.0135 s⁻¹ and the kon amounted to 144000 M⁻¹ s⁻¹.

B2: HER1-binding IgG1 antibody GA201 (antibody, V domains shown)
VH: QVQLVQSGAEVKKPGSSVKVSCKASGFTFTDYKIHWVRQAPGQGLEWMGYFNPNSGYSTYAQKFQGRVTITADKSTSTAYMELSSLRSEDTAVYYCARLSPGGYYVMDAWGQGTTVTVSS
VL: DIQMTQSPSSLSASVGDRVTITCRASQGINNYLNWYQQKPGKAPKRLIYNTNNLQTGVPSRFSGSGSGTEFTLTISSLQPEDFATYYCLQHNSFPTFGQGTKLEIKR
notes: produced in 293-F cells; also called anti HER1 antibody GA201; GA201 parental unmasked antibody
In the case of B2, in assay [3], the koff was 0.00012 s⁻¹ and the kon turned out to be 168000 M⁻¹ s⁻¹. In assay [4], this molecule had a Kd of 0.001 µM.

B3: anti-idiotypic CH2527 binder 4.32.63 (scFv)
scFv: QVQLKESGPGLVAPSQSLSITCTVSGFSLTSYGVSWVRQPPGKCLEWLGIIWGDGSTNYHSALISRLSISKDNSKSQVFLKLNSLQTDDTATYYCAKGITTVVDDYYAMDYWGQGTSVTVSSGGGGSGGGGSGGGGSGGGGSDIQMTQSPASLSASVGETVTITCRASENIDSYLAWYQQKQGKSPQLLVYAATFLADDVPSRFSGSGSGTQYSLKINSLQSEDVARYYCQHYYSTPYTFGCGTKLEIK
notes: as for B1
B3: in assay [1], the Kd was found to be 0.001 µM, the off-rate (koff) was found to be 0.000105 s⁻¹ and the on-rate (kon) came out at 196000 M⁻¹ s⁻¹. In assay [2], this molecule came in with a Kd of 0.002 µM, a koff of 0.000652 s⁻¹ and an on-rate (kon) of 346000 M⁻¹ s⁻¹.

B4: 4.24.72 (antibody, V domains shown)
VH: QIQLVQSGPELKKPGETVKISCKASGYTVTDYSMNWVKQAPGKCLKWMGWINTETGEPRYTDDFKGRFAFSLETSASTAYLQINNLKNEDSATYFCAREGDYDVFDYWGHGTTLKVSS
VL: DIVLTQSPASLAVSLGQRATISCRASKSVSTSSYSYMHWYQQKPGQPPKLLIKYVSYLESGVPARFSGSGSGTDFTLNIHPVEEEDAATYYCQHSREFPYTFGCGTKLEIK
In assay [1], B4 returned a Kd of 0.014 µM, an off-rate (koff) of 0.00118 s⁻¹ and a kon of 87200 M⁻¹ s⁻¹. Besides, in assay [2], binding was characterised by a dissociation constant (Kd) of 0.029 µM, the off-rate (koff) came to 0.00445 s⁻¹ and the kon came out at 155000 M⁻¹ s⁻¹.
